Results: patent publication US20240016917A1 (ACADEMIA SINICA, published 2024)

Key:
[1] = molecular target: WT
[2] = molecular target: D614G
[3] = molecular target: Beta (SARS-CoV-2)
[4] = molecular target: Alpha (SARS-CoV-2)
[5] = molecular target: T1, SARS-CoV-2 S protein (entire S ectodomain) (SARS-CoV-2, UniProt P0DTC2 14-1209); assay: biolayer interferometry (BLI)
[6] = molecular target: T1, SARS-CoV-2 S protein (entire S …)

B1: monoclonal antibody (mAb) m31A7 (antibody, V domains shown)
VH: EVQLQQSGPEMVKPGASVKISCKTSGYTFTEYTIYWVKQSHGKSLEWLGGINPNIGDTTYNQKFKGKATLTVDTSSSTAYMELRSLTSEDSAVYYCAREVYNYSFAYWGQGTLVTVSA
VL: DIVMSQSPSSLAVSVGEKVTMSCKSSQSLLYSSNQKNYLAWYQQKLGQTPKLLIYWASSRESGVPDRFTGSGSGTDFTLTISSVRAEDLAVYYCQQYYRYPLTFGVGTKLELKR
For B1, the EC50 [1] was 0.0685 nM, the EC50 [2] was 0.0321 nM and the EC50 [3] was 0.0325 nM. It also gave an EC50 [4] of 0.0446 nM, a Kd [5] of 0.0709 nM and an EC50 [6] of 0.0312 nM.
